According to a protein production outcome set (Wang et al. 2014):

experiment: label from the status in PepcDB records
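Further: failed if final PepcDB status was selected cloned or expressed and not failed if soluble or beyond.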

Sequence | protein production
MPTTQLHHHYVLCGWHVRSALTLPELPPWSATATPVDADVVIEEGEVPDRLDLHDPVESWLSVGRDGSVLLQVPQVVRIHVHAGRAMRVQRLNRHDESWRLFLLGSALGYLCLQRSLFPLHAACLRIGTQTVAFAGHSGAGKSTLAAALLKRGHGLLSDDLTVIRLDSAGAIMVLPAFPRLKLWRDTLESLQLPVTDAPPVRPGMEKFDLRPSAGFDAAPVRLDAVVVLGDASEPHLQRLSPQHALPLLHGYLARPQAAVRMGLHAATFAHAAAIARQVPVWRLRRPRRFDALDITVDLIEAHVGALEHHHHHH | failed
MPTVKLTKNITIMTGSPNTLIYDNRVVIDLGGKNSSVDINAEVQLATHGHADHIAGLLKKDAKIRYLPKEDYWSLTLMGRRAMIYGCSSKDSDIFTFDYVKENIESIDIEVRTSEIEVIKLPGHTPGHSGYIVDNVLYAGDAFFGEKVLEGFSVPFYTDFWTALESLNKVKELAKSVNNIVISHGPVYTNKNKMVSILESNIIYAQNLIGKILDMLSNNELTVEEIVVKLKQDLTPSNVLLNSVVVRSILFGLENIEYNVSQKGLVFRRRVH | failed
MPVAISLPTSSTSHFFPRRRGHANHRYQRFSGAQSSTEDPYIRKNQTGVIIIGAGLAGLAAANQLTSKRIPFLLLEASDGVGGRVRTDIVDGFFLDRGFQIFITAYPEAKKLLDYEALDLQRFYAGAKVFYGGKFHTVADPLRHFWDSVASLANPIGSVVDKGLIALTRARVLIKSDEEILTAADEVPTIDLLRKIGFSETILDRFFRPFFGGIFFDRDLETTSKLFDFVFRCLALGENTLPAMGIGEISNQLAAKLPAKSVLLNTRVASIEYPNGSGSDPPSVRLQDGSVMKAELGVIIAVEQPEVNKLLDGIRDPVITKPARSTICLYFTAEPNQIPVQDPVLFLNGSNSGIINNMFFATNVARTYAPPGKALVSVSLIGLFEDRTDDDLAAEVLRELSGWFGESPVMSWKHLKTYRIQFAQPNQCPPTDLVKSPRVGSGLYLSGDYMTSATFDGALVSGRRAVEVLLRETGLIK | failed
MPVFRRHASQNCASIPPMMLFKRPDTETLYFALVNKDPAYEGVAYVCVTSTKIFCRFTCTARKPKIENCRFRETITECLEAGFRPCKRCKPMLSYGTPDGTVTALLTALENEPARRWREEDVVALGHDPSTVRRSFKRRFGMSFLEIARLRRVGDAAESLASGEAVIGAQIDAGYESGSGFRSAINQLFGTSPAAMKGRGFLKGDWIDTPIGPMLAVADDHALHLLEFADRPALPAELKRLKARTGADMVLGRTAVTGQIAAELAAYFAGRSGSFETRLAGHGTPFERDVWRNLREIPAGEIVSYSSLATAMERPTAVRAVARANGANQLAIVVPCHRVLGADGSLTGYGGGLWRKKWLIEHERRMARGQMLGMPLASLEHHHHHH | failed
MPVKRIAVFSTTHIGFLDMLGRSDGIIGVSRPEFVNTPAVRSRIRSGAIKAIGMPFSPDVEALLNLEPDLVIAPALPAARKTDYQALVQAGIPVLVVAEWLEPSPLGRAEWIKLFGALVGKEKLARERFAAIESSYLKIAALSRNLPLEHHHHHH | failed
MPVRRPCPGRPYRDLSSAPGTAVRAEPTTPLPPFALRTCACQTPGRDMSVNALTAVPSARSIPATSAFRGRIGCDARSGHYPVPGRYRLHLSPSCPHCLKIAVAHSLLGLEDACPVTLLPAVPDGPGGEHSALRPLYEASAHRYAGAAVAPVLSDDWSGRIVSTHAPDIMRDLARRFGGERPPLYPKGMEAEIEAVGHLCEQGINATAQRAGRADADDAERDSALGSLLRTLRSLEGRLARQDYLLGDRLTAADIELWVSLVQLDTVHRWHLDASAVHRVADHPALWAYARRLAGDPAFGAHLDLDGIARRHHAHCRGLEAAGAAVQIVEWAAHAPDRTASRQG | failed
MPVTETIPLHETARERYLNYALSVITSRALPDIRDGLKPVQRRILFAMFDSLNLYPSKRHRKSATVVGETMGKYHPHGDKAIYDAMVRMAQSFSLRAPLVDGHGNFGSLDGDSAAAMRYTEAKLQPLAMEMLEGLRDETVDYRDNFDGSLEEPVVLPARVPNLLVNGASGIAVGMATNIPPHNLGEVVDAALHMIEEPEVDTSTLVRDHIQGPDFPTGGRILNTQDELAEIYETGSGTIEMRGAYRTKGKTRAIIESVPYGVDKSKIVEEIADHIAEENVPQLSNVRDESTDDVRIVLELKRGSDTEAAMAYLFKHTKLQKRFHVNLTCLVPTESTDVKAPKQVDLRTILRYFLDFRLDVVTRRLQNELAELEARIHILEGFETIFDALDEAIEIIRASKNKADAAQRLMHRFQLDEEQTDAILETQLYKLSQMEIEAIRDELGEKRARAEGIRRLLDDEDARWGIVKDELQDIRDEYTDERRSTLVGPGADMEYTEEDYIVDEDVHVIVTRDGWVKRQGTYSDLDAIRTRDGDEVGWALAGSTRATVGFFTNYGTCYTTRITEIPSTTGYGDPVQKLFSFDDGEHVVGVVSFDDRALPDPVPAEPSEQGELFDPDDPDAPDQPYVVAISKGGQATRFTLDGYLEPSISTGRKYMRLEDGDEVARVHLARGDENICLASHDGRALVFPVHQVSVYKGPAKGVRAIRLEDNDRVLDFALSTRARDGLTVETNNGREEIVRTTKFDATNRGAKGTLVIKRGYFAEVFPEPVEVPLHEAA | failed
MPVVECDIQTARAALADAGASFSDGNSEHELWHADLGDAHAVAYADKLVVQGGSPTDITAVVQPDRGGRVHAYFDGASRGNPGPAAVGWVLVSGDGGIVAEGGDTIGRATNNQAEYDALIAALEAAADFGFDDIELRGDSQLVEKQLTGAWDTNDPDLRRKRVRARELLTGFDDWSITHVPRATNERADALANEALDDA | failed
MPYKTKSDLPESVKHVLPSHAQDIYKEAFNSAWDQYKDKEDRRDDASREETAHKVAWAAVKHEYAKGDDDKWHKKS | not failed
MPYLAGCGAVLYVDVMPEGTLLTRGVSASPTRCGRTPPGGRGVWLLCATIFYWAVARFGMALFSLAPENITPLWLASGVGLIMCLEAGLSAVPCIALASAVANFPGLSASGGESPLLYAVLTGTADGLSAGLLAALGSRVLQGGITSVLDLLRGVVLVCLPATLIGGVAITLCLFTGGYVPRDVLCQMSFSLMAGDTLGVLLVFPLWRAWHVLPLPSRTELCWMAGVLCLCLLSIWSAFFVEGAAIHMLMPLLVLLSCNVRINGVMVVLFLTVIAVFIATAHRVGPFHMPTQGEAVMLLVSFAASTTLTTLGLSLYRHLLAQAGARATMWEQRAGIDPLTGLCNRARFDEVLLAELQRLQRQDSPLSLMMFDADHFKPYNDMYGHVAGDACLKRVAGVLRAVAHRASDVVARYGGEEFVCILPGTDRDSAYALAEKVRQGVRALAIPHVGSPVAGVLTVSAGVVTVHGCDGLDPQEVVAQVDRALYQAKGAGRDRVMVAKGAAKEGMQYGECALSGVQRLVWSEDYACGEPRIDASHRALLAKADSIMSSLGGADGLNARRACILALVDAVRMHFREEERVLAAIGYPKAGEHAVIHEALLQRGASLVAAWERGGMSLDDVVITLVHGMVMRHMLDDDSAFFEHVQQWGAGGTQP | failed
MPYTVRFTTTARRDLHKLPPRILAAVVEFAFGDLSREPLRVGKPLRRELAGTFSARRGTYRLLYRIDDEHTTVVILRVDHRADIYRR | not failed
MQAAAARIVTIAVCPGPAAAMQDAILQALRRDAADDAVALAREWVTNAPDHAAAHRWLALALQQQGQPALALDSIDTALTLTPEDADLHLLRAGALLATRDLSAADAALSRTTALDPNQFNAYVMQAHLAVARGDLDEAERLSRTAARLAPEHPQLLAVDGVVEMRRGQDDRALSLLTRAAEQLPDDARVLFSLGFAYLQKEHFAFAERAFERVIELNPPGTALRAFIAQLAQRQGRLDDALAAMQGVLDQPDGDLPAMRRLAGEMELQAGRPDQAAAHLRLALAHWPADRRTLHALLTAWERLGAVDDARDTLDAALATSATAHDLWLARLAVEPVGGPQAQAVIERWLLAMPEHLPALEALMRVHDMQGQADEAEMVARQIVAVEPGRISGEQRIVEALLQRDPPAAIACVESLIESLPAPQQTVLRPWLGNVQDRAGQPDAAVGTWMQFHREQAQHRLPLPPQAARQPTQWPALGSIPDTVTARPLFVWGTPGSHVERLVAVMGAATPLVRGDRYGITPPSDALQSYRTLEQLASGELAPTALVEGWKAQLPRRGIDDGNVIDWLLWWDNTLLTALRPHLPEGRLAIALRDPRDMLLDWLSAGASAPLALQSPQQATDWLLIALEQLATLHERDLYPHRIIRLDGIEDDPQGISTALEQAFGLSFPLVEPRGPARLASGRWRDYRGVLGAQFDLLTLIAVRFGYPQD | failed
MQAAVTVTPARLPELLLGLATVRPVFLWGAPGIGKSSLVRNFADSLGLECVSLLGTQLAPEDLIGVPQIRDGRSVFCPPESIARDEPYCLFLDELNAATPDVQKAFYSLILDRRIGNYELPKGSLVIGAGNRATDNALARPIASALVNRLTHVHLDASAKDWLVWAGENGIHPWITDHLTDRPDHLWSKPPKTEEPFSTPRSWHMLSDALHSFGQDLDEETLKVLAHGTLTPAHATAFCGYVKIVRSRFGIEAILKGEARWPSRIEDRDLLYYLAESFRGRLVKELPASKEHMSANGRQTAYRAKSLLVQLAEISVEVAQSVIASDADGNPLLPAWFLVEAARDMPRLVEARRLEHHHHHH | failed
MQAEGKRKKGDLLIILVVLIIGVGAAVPWLWNQLNPGGGNGEHERIAVITRDGKEVARINLDKVTEPQHFHYEGGIALTIVAENGKIRFLESQCPDQICVKTGSLSKPGDFAACLPAGTIVTIEGDEYE | failed
MQAILLNFCFDFMCNYVIMSNKHFYRLGGFIMSFKIITISREFGSGGRFIGEQIAQKCGIEFYDKKIIEHVAKELGISEQIVANQGEYAPAGNIFSYAFVGRDITGVSLSDQIFNIQQKLIKDIAQKEPCVIVGRCADYILSDRDDVLNVFIEGNKPEKAARIKKLYQKSDDEVKKLLKDVDKKRSVNYRYFTDKEWGNRKNYDLVLNSSVLGYDKCIELITAAYA | failed
MQASSNGTTHTKRVRIRPFQKGIRRKRKDLMTEAENRCRLVLIVPDIADADEQARIVADALKGGDVASVIVPQYGLDDGAFQKHAEKLVPVIQDAGAAALIAGDSRVAGRAKADGLHITGNAQALSEAIDKHAPKLIVGGGNASDRHNALEIGEVRPDYIFFGKLDGDIKPEAHPKNLALGEWWASMIEIPCIVMAGTDPASALAVAETRAEFVALRLAVFGEPGRAPSIVAEINALLDEKAPRFED | failed
MQDEYDAADLSLGVSDVTLVGEVLDTEAVRTFDRDDGSEGRVSNLVVGDETGRVRVTLWDDQADTATDLDAGAVVEIVDGYVREREGSLELHVGDTGAVTPVPDADVSFVPLEHHHHHH | not failed
MQDKYGVNHDHYCYESSDVLINLLNIRDPDELTQAEADFNLIRYSEYCSDLDELEDFDSNHFLNLHWVLFQDIYEWAGTIRDVDISKANTRFCTCSRVEPELNKAISRIPLIRFCRNKHELVALVADIFSDLNVVHPFREGNGRTTRFFFEELLHVAGYRIEWPVITKEEWVDANIHGYFGQLHKLEVIFDAAIIESLEHHHHHH | failed
MQEAPNTPTRPQAPPSAHLESPQPARTQQQSIQQMTPQSTTSSNNFLKDGAAGAVLEDQDIEEVLKALKTFDGGHVNPDTICEFFDEVWEEAAPAAPLPPAPPENVVDVPGAKPSCSGILVSGSNISQPNVIIKQEQRPWQESHAELEQQQHVISRRIEFLLRRMRKLQARAMCRHASEEVVGIMEWSARSSHKAPV | failed
MQEEWNPLMKNRCIIWLVTGICLTVIFQFPLKSVASSADKYANFAELAEHETEGEDYQIEYTDMGTELLILSPHGGGIEGGVSELVRAFSADYSTYLFEGIKPSQNWDLHITSNHFDEPQALKAVKEHSYVLAFHGYHDIVEHTLVGGTDTGGAKAIVRALLNKGFSAELVSPSHRLAGGNPENINNQCKTGQSIQLEISTPQREAFFSEFGLWTRASSKNETFQAYVSAVKEVLETRYK | failed
